From PMC11348035 (Proceedings of the National Academy of Sciences of the …, 2024)

B1: ATAD5 (1 to 500, S306E), the 'wild-type' ATAD5 (1 to 500) of the in vitro binding studies (domain or fragment, human, UniProt Q96QE3 1-500, looked up)
chain: MVGVLAMAAAAAPPPVKDCEIEPCKKRKKDDDTSTCKTITKYLSPLGKTRDRVFAPPKPSNILDYFRKTSPTNEKTQLGKECKIKSPESVPVDSNKDCTTPLEMFSNVEFKKKRKRVNLSHQLNNIKTENEAPIEISSDDSKEDYSLNNDFVESSTSVLRYKKQVEVLAENIQDTKSQPNTMTSLQNSKKVNPKQGTTKNDFKKLRKRKCRDVVDLSESLPLAEELNLLKKDGKDTKQMENTTSHANSRDNVTEAAQLNDSIITVSYEEFLKSHKENKVEEIPDSTMSICVPSETVDEIVKSGYIEESENSEISQQVRFKTVTVLAQVHPIPPKKTGKIPRIFLKQKQFEMENSLSDPENEQTVQKRKSNVVIQEEELELAVLEAGSSEAVKPKCTLEERQQFMKAFRQPASDALKNGVKKSSDKQKDLNEKCLYEVGRDDNSKKIMENSGIQMVSKNGNLQLHTDKGSFLKEKNKKLKKKNKKTLDTGAIPGKNREGNT

Legend:
UAF1 = UAF1 (UniProt Q8TAF3); experiment: FLAG co-immunoprecipitation, western blot; conditions: reference: wild type; sites S306
[1] = target: UAF1 (USP1-associated factor 1), purified recombinant (UniProt Q8TAF3 1-677); experiment: pull-down
UAF1 (USP1-associated factor 1), purified recombinant, sequence (Q8TAF3 whole entry): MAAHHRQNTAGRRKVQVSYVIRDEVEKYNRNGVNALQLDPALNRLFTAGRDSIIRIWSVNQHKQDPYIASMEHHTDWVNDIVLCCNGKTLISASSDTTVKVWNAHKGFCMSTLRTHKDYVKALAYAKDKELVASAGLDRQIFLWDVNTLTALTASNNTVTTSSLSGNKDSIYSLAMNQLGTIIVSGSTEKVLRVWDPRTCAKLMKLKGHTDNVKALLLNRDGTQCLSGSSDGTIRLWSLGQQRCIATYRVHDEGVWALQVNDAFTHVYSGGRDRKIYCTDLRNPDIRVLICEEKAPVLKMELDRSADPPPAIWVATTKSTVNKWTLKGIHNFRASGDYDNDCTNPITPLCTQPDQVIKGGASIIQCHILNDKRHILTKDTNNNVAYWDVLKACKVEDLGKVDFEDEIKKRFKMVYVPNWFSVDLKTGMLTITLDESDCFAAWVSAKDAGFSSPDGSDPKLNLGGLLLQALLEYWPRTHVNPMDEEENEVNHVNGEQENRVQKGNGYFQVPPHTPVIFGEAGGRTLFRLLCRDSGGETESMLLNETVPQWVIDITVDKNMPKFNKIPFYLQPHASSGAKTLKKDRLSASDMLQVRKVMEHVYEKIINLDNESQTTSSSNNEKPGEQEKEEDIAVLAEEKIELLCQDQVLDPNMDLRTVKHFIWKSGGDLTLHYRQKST

Molecule | binding against the reference (UAF1) | binding result [1]
ATAD5 (from UniProt Q96QE3) S306A | weaker | –
B1 | – | binds
